This assay concerns the target PKS12Δ1 E20S mutant protein (M. tuberculosis H37Rv) (UniProt I6XD69).

Some results are limits rather than exact numbers.

“PKS12Δ1 E20S mutant protein (from UniProt I6XD69 1-4151) (enzyme)” gave a catalytic turnover (fold decrease) of 5 and a product formation by quantitative radio-HPLC (fold decrease) above 5.

Source of the values: publication PMC2443190, “Novel Intermolecular Iterative Mechanism for Biosynthesis of Mycoketide Catalyzed by a Bimodular Polyketide Synthase” (PLoS Biology, 2008).
